Experimental data from the RNAGym collection of RNA variant scans (doi:10.1073/pnas.2313332121).

B1: TPR t1 (parent)
chain: GACCAAUCUGCCCUCAGAGCUCGAGAACAUCUUCGGAUGCAGAGGAGGCAGGCUUCGGUGGCGCGAUAGCGCCAACGUCCUCAACCUCCAAUGCAUCCCACCACAUGAUGAUGCCUGAAGAGCCUUGGUUUUUUG

Variants of: B1
Assay: polymerase ribozyme fitness, log enrichment relative to wild type (log ratio); higher = more active; in vitro selection for triplet polymerase activity
Method in brief: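 Mutant libraries of each subunit of a heterodimeric triplet polymerase ribozyme were built by PCR and transcribed. Each library went through one round of in vitro selection in triplicate: annealing with biotinylated primer, partner subunit and triplets, frozen incubation at −7 °C, gel excision of extended constructs, streptavidin-bead capture and RT-PCR. Input and output libraries were Illumina-sequenced; only genotypes with ≥10 input reads and ≥1 read per output were kept. Fitness is log2(genotype enrichment/wild-type enrichment), using inverse-variance-weighted replicate averages.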

Variant	polymerase ribozyme fitness (log ratio)
A18C A37C G127U U129A	-3.43
A18C A26G G71A G93A U112C G122A	-4.45
A27G C89A	-3.54
G113C C124U	-2.58
G10A C15A C94A	-3.08
A46U C115A	-1.98
C80U U112A	0.959
A26U C114A	-3.87
A29C U112A	-2.33
U78C G113A G135U	-2.01
A105U A111U	-5.69
G128A U130G	-1.43
G17U U130C	-1.79
C8U G47C G57A U92C	-4.38
U9G U14A G52C	-0.345
U21A C56G U78A C85A U109G	-4.63
C20A G57C	-3.31
G48U C64A C86G A111G G135A	-6.11
G60A G69A U87A	-3.78
C72A C124U U131A	1.33
C11U G63A C72A	-7.14

Variant	polymerase ribozyme fitness (log ratio)
C101A C104A A121C	-0.368
G47A A50U A91C	-4.79
G63U U96C	-1.31
C15U U54G	-1.23
G35A C64U A103C G120A	-5.9
U38G C102U	-3.84
A83G U109C	-5.77
C62G G117A U129G	-6
A50G G51A	-1.11
G48U A90G U112A	-2.03
C49G C115A	-1.51
U32C G60C A75C C79G A118U	-1.88
C22G A41C G44C G69U C79G A90C	-5.69
U9A G48C C62A G77A C88U U112A	-3.81
C8A C13U U55G G69A	-2.21
G69C U81G	-5.01
C49A G77A U106C C114A	-2.9
C88A C104A	-1.63
C22U C73G C82A G120U U129A	-5.92
C53A C70U C115A A118U	-1.34
A74U G117A U130C	-2.62

Variant	polymerase ribozyme fitness (log ratio)
C15U A43G C124A	0.00445
C12A G36C	-1.69
U78A A105G	-2.86
C8A G61U G117U A119U C123U	-0.671
U30G C115A	-5.72
C20A U125A	-3.22
C28U C72U C82U	-1.52
U59G U109G G120U	-4.53
C64U C76G	-3.51
A41G U55G A75G U87A A108G	-4.14
G60A A90G U96C C101G	-1.58
G39U G113C	-2.84
C73A G77A	-0.332
U32A C56G	-3.79
C79U C94A C99U A121G	-2.9
C22U G61A	-3.53
A18C G47A	-2.19
C72G A95U	-1.07
U9G C70G	-2.02
U7G C11U A18C G45U C53A	-2.72
A24G A119U	-2.54

Variant	polymerase ribozyme fitness (log ratio)
C56A G61A G110U	-4.01
G48A G128U	-2.69
C73G U96G C115G	-3.54
C72U C76U A121C	1.1
C13U A41U U126C	-2.14
A95U U106G G120U	-2.83
G120U U130C	0.002
A29G A50G C99G A105G C124A	-7.1
C13A C64U	-1.99
U54A C70G	-2.37
A2G C115A	-0.495
G69U G120U	1.02
C13U C15G A18U A66U	-5.7
G45U A68G C79G C99U U112A	-7.19
U30A U129G	-4.77
A83U C104A	-1.18
G44A U87G U129G	-1.42
G47A A95C	-1.79
U106A G107U U116C	-7.47
U21A U59A C62A	-3.07
